B1: PoP_00022_hsa-let-7c loop (ssRNA)
RNA: GAACUGGCAAUCGCACCCACCUAAAGGGUGUACGAAGUUUCAGCGGUUUAGAGUUACACCCUGGGAGUUAACUGCUGAAGCUUCGUGCAC
B2: PoP_00025_hsa-let-7f-1 loop (ssRNA)
RNA: GUAAUCGAGGCGUAAGGCACAACAUAGGUGUACGAAGUUUCAGCAUAGUUGUGGGGUAGUGAUUUUACCCUGUUCAGGAGAUAACUAUGCUGAAGCUUCGUGCAC
B3: PoP_00021_hsa-let-7b loop (ssRNA)
RNA: GAACCGGCUACGCUAAACUUAGAACCGGUGUACGAAGUUUCAGCGUGGUUUCAGGGCAGUGAUGUUGCCCCUCGGAAGAUAACUAUGCUGAAGCUUCGUGCAC
B4: PoP_00020_hsa-let-7a-3 loop (ssRNA)
RNA: GAGAGAGGAUUCUCACUUACUGUACCGGUGUACGAAGUUUCAGCAUAGUUUGGGGCUCUGCCCUGCUAUGGGAUAACUAUGCUGAAGCUUCGUGCAC
B5: PoP_00027_hsa-let-7g loop (ssRNA)
RNA: GCACAAGGAGUAAGGCGCAUGUACCCGGUGUACGAAGUUUCAGCACAGUUUGAGGGUCUAUGAUACCACCCGGUACAGGAGAUAACUGUGCUGAAGCUUCGUGCAC
B6: PoP_00026_hsa-let-7f-2 loop (ssRNA)
RNA: GCCUUGAUGGCCGUCAGUUCGGUUAAGGUGUACGAAGUUUCAGCAUAGUUUUAGGGUCAUACCCCAUCUUGGAGAUAACUAUGCUGAAGCUUCGUGCAC
B7: PoP_00019_hsa-let-7a-2 loop (ssRNA)
RNA: GACACGGUAGGGAAACCCACCAACUAGGUGUACGAAGUUUCAGCAUAGUUUAGAAUUACAUCAAGGGAGAUAACUGUGCUGAAGCUUCGUGCAC
B8: PoP_00018_hsa-let-7a-1 loop (ssRNA)
RNA: GGUGACGGGCAAAUCACUAACCACCCGGUGUACGAAGUUUCAGCAUAGUUUUAGGGUCACACCCACCACUGGGAGAUAACUAUGCUGAAGCUUCGUGCAC
B9: PoP_00028_hsa-let-7i loop (ssRNA)
RNA: GAUAUGACCGCCGGCUUAGAAUAGAAGGUGUACGAAGUUUCAGCGCUGUUGGUCGGGUUGUGACAUUGCCCGCUGUGGAGAUAACUGCGCUGAAGCUUCGUGCAC
B10: PoP_00023_hsa-let-7d loop (ssRNA)
RNA: GCAAUAUCAUCGCGUGUUAAGGUGGCGGUGUACGAAGUUUCAGCAUAGUUUUAGGGCAGGGAUUUUGCCCACAAGGAGGUAACUAUGCUGAAGCUUCGUGCAC
B11: PoP_00014_U1A (ssRNA)
RNA: GAUAGAGCCAACUAUGCGCAGUUACCGUUUGGGAAUAUAGUGCCAUUGCACUCCGGCGCUAUAUUCCCGGA
B12: PoP_00010_U1A2 (ssRNA)
RNA: GGUGUCCAGAUUAGGCGUGCCAUACCGUUUGGGAAUAUAGUGCCGAGUCCUUCGGGACAUUGCACCGGCGCUAUAUUCCCGGA
B13: PoP_00011_dU1A2 (ssRNA)
RNA: GAGACGAGGCCCUAGAUCAUGCAUCCGUUUGGGAAUAUAGUGCCGAGUCCUUCGGGACAUUACGGCGGCGCUAUAUUCCCGGA
B14: PoP_00008_dKt (ssRNA)
RNA: GGAUUCCACUCAAGCUUCACGGGAUAGUUUGGGAAUAUAGUGCCUGCCCGAAAGGGCGUCAUGGCGCUAUAUUCCCGGA
B15: PoP_00016_dU1A (ssRNA)
RNA: GGGGUAUAUCCUCACACUUCCCGGGCGUUUGGGAAUAUAGUGCCAUUACGGUCCGGCGCUAUAUUCCCGGA
B16: PoP_00001_Kt (ssRNA)
RNA: GUAUAAGCGGGAGAUUCGUCCUCAUAGGUGUACGAAGUUUCAGCUGACCCGAAAGGGCGUGAUGCUGAAGCUUCGUGCAC

We go through 16 molecules from US20170022545, “RNA MICROARRAY FOR DETECTING INTERACTION BETWEEN PROTEIN AND RNA CONTAINING A HIGHER-ORDER STRUCTURE” (KYOTO UNIVERSITY, published 2017).

A value given as a limit tells only on which side of the number the result lay.

L7Ae, sequence (O29494 whole entry, one chain of several): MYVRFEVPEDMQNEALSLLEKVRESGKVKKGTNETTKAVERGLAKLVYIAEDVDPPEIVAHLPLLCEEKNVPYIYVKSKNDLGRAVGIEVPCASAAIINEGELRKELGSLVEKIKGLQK
T1 sequence (P09012 2-282, one chain of several): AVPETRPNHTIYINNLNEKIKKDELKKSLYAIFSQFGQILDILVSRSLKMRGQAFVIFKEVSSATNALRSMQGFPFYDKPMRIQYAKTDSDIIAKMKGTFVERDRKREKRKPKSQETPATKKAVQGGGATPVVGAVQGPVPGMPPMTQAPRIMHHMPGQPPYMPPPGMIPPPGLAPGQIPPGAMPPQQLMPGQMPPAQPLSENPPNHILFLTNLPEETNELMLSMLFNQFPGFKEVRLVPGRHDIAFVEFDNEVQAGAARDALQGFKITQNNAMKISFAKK

The first data set concerns the target L7Ae (UniProt O29494 O29494:1-119). Put plainly: RNA microarray, no Cy3 signal. The note with it: tags: Cy3-labelled (NHS ester); label: 3' pCp-Cy5; hairpin. The protocol:
The mixture solution was incubated at 100° C. for 5 minutes and subsequently on ice for 5 minutes. On the lower frame of a hybridization chamber (Agilent), a gasket slide (Agilent) was mounted. In a single well of the gasket slide, the mixture solution (45 μL) was added and the well was covered with a DNA Barcode microarray slide and then a hybridization chamber was assembled. The hybridization chamber was set at a rotor (Agilent) of a hybridization oven of 55° C. Incubation was performed for 20 hours at a rotation rate of 20 per minute. The hybridization chamber was taken out from the oven and made into pieces. The microarray slide was taken out, separated from the gasket in Gene Expression Wash Buffer 1 (Agilent), washed with Gene Expression Wash Buffer 1 at room temperature for 5 minutes and further washed with Gene Expression Wash Buffer 2 (Agilent) at 37° C. for 5 minutes. The dried microarray slide was scanned by a microarray scanner (Agilent) in the mode of 8×15K, c scan, AglilentHD_miRNA, two color, XDR Hi and Lo (0.05). In this manner, binding of an RNA probe to a target spot was confirmed based on Cy5 signal.
Subsequently, to the gasket slide on the hybridization chamber, 70 μL of 5 nM Cy3-L7Ae (controlled in concentration with TBSMT buffer (Tris-HCl 20 mM, NaCl 300 mM, 5 mM MgCl₂, 0.1% Tween-20)) was added and then a microarray slide scanned was mounted. A hybridization chamber was assembled and incubation was performed at room temperature for 30 minutes. The hybridization chamber was made into pieces and the microarray slide was taken out, separated from the gasket in the TBSMT buffer, washed with TBSMT buffer at room temperature for 5 minutes, and further washed with TBSM buffer (Tris-HCl 20 mM, NaCl 300 mM, 5 mM MgCl₂) at room temperature for 5 minutes. The dried microarray slide was scanned again. […] In addition, Cy3 signal, which was 1.5 times as strong as that at PoP_00001_Kt, was detected at a spot of PoP_00024_hsa-let-7e. No Cy3 signal was detected at spots of other 10 probes.
As for B1, the binding result was “no binding”.
On the same count and under the same terms, the same measure for B2: “no binding”.
Turning to B3, the binding result is listed as “no binding”.
The same measure, in the same setting: the value for B4 was “no binding”; that for B5 was “no binding”; that for B6 was “no binding”.
B7: the binding result is listed as “no binding”.
The same measure, in the same setting: the value for B8 was “no binding”; that for B9 was “no binding”.
Same read-out and setting: the value for B10 was “no binding”.

The target of a further data set is T1, U1A (Homo sapiens, UniProt P09012 P09012:2-282). Put plainly: RNA microarray, 40 nM U1A. As to conditions: tags: Cy3-labelled (NHS ester); label: 3' pCp-Cy5; hairpin. How it is done:
(§1) To a 1.5-mL tube, 120 ng of Cy5-RNA probe PoP_00001 Kt, 120 ng of Cy5-RNA probe PoP_00001, 00008, 00010, 00011, 00014, 00016, PoP_00018-28 and ultrapure water were mixed and controlled to have a volume of 18 μL. Hereinafter, the same operation as described in Section 8 above was performed. Binding of the RNA probe to a target spot was confirmed based on Cy5 signal.
(§2) Subsequently, to the gasket slide on the hybridization chamber, 70 μL of 40 nM Cy3-U1A was added and a microarray slide having RNA probes bound thereto was mounted and then a hybridization chamber was assembled. Incubation was performed at room temperature for 30 minutes. The hybridization chamber was made into pieces and the microarray slide was taken out, separated from the gasket in the TBSMT buffer, washed with TBSMT buffer at room temperature for 5 minutes, and further rinsed with TBSM buffer. Thereafter, the dried microarray slide was scanned.
Regarding B11, the binding signal is ≥ 10 fold Cy3 signal vs other spots.
The same measure, in the same setting: the value for B12 was ≥ 10 fold Cy3 signal vs other spots.

The next data set has as its target T1, U1A. Put plainly: RNA microarray, signal at least 10-fold below U1A2/U1A. As to conditions: tags: Cy3-labelled (NHS ester); label: 3' pCp-Cy5; hairpin. How it is done:
as §1, §2
As for B13, the binding result was “no binding”.
B1: the binding result was “no binding”.
Consider B2, for which the binding result is “no binding”.
On the same count and under the same terms, the value for B3 was “no binding”.
The same measure, in the same setting: the value for B14 was “no binding”.
Same read-out and setting: the same measure for B4: “no binding”.
On to B5, for which the binding result is recorded as “no binding”.
On the same count and under the same terms, the same measure for B6: “no binding”; for B7: “no binding”.
The same measure, in the same setting: the value for B8 was “no binding”; that for B9 was “no binding”; that for B10 was “no binding”.
Same read-out and setting: the value for B15 was “no binding”.

The data set is the same for the next values; noted with them: tags: Cy3-labelled (NHS ester); label: 3' pCp-Cy5; hairpin, Kt kink-turn loop.
As to B16, the binding result is on record as “no binding”.
